Data published in US20240124585A1 (SUTRO BIOPHARMA, published 2024).
Like-named read-outs stand apart in the source and are kept apart here.

How the values were obtained:
[1] = target: T1, human CD3 on T-cell lines (CD3-expressing Jurkat cells; HUT78 cells) (human, UniProt P07766 23-207); test: flow cytometry, HUT78 cells
T1 construct: On cells it stands in the CD3/TCR complex

[2] = target: T2, human CD3 epsilon (Acro Cat #CDE-H5223) (human, UniProt P07766 23-126); test: SPR (Biacore), antibody captured, human CD3 epsilon analyte
T2 construct: Bought recombinant protein; also called rhCD3E
Procedure: (§1) Anti-Fab or anti-Fc polyclonal antibodies were immobilized onto a CM5 chip (GE Life Sciences) using amine coupling chemistry (from Amine Coupling Kit, GE Life Sciences). The immobilization steps were carried out at a flow rate of 25 μl/min in 1×HBS-EP+ buffer (GE Life Sciences; 10× Stock diluted before use). The sensor surfaces were activated for 7 min with a mixture of NHS (0.05 M) and EDC (0.2 M). The Anti-Fab or Anti-Fc antibodies were injected over all 4 flow cells at a concentration of 25 μg/mL in 10 mM sodium acetate, pH 4.5, for 7 min. Ethanolamine (1 M, pH 8.5) was injected for 7 min to block any remaining activated groups.
(§2) Off-rate and kinetic binding experiments were performed at 25° C. using 1×HBS-EP+ buffer. Test and control antibodies were injected over the anti-Fab or anti-Fc surface at concentrations of 5-10 μg/mL for 12 seconds at a flow rate of 10 μL/min on flow cells 2, 3 and 4, followed by a buffer wash for 30 seconds at the same flow rate. […] After capturing ligand (antibody) on the anti-Fc or anti-Fab surface, the analyte (human CD3 epsilon, Acro Cat #CDE-H5223) was bound for 180 seconds, followed by a 600 second dissociation phase at a flow rate of 50 μL/min. Between each ligand capture and analyte binding cycle, regeneration was carried out using two injections of 10 mM Glycine pH 2.0 for 30 seconds at 30 μL/min, followed by a 30 second buffer wash step.
(§3) The data was fit with the Biacore T200 Evaluation software, using a 1-1 Langmuir binding model. KD (affinity, nM) was determined as a ratio of the kinetic rate constants calculated from the fits of the association and dissociation phases.

[3] = target: T2, human CD3 epsilon (Acro Cat #CDE-H5223); test: as above; remark: listed apart in the source
Procedure: as §1, §2, §3

T1 sequence (P07766 23-207 limits assumed): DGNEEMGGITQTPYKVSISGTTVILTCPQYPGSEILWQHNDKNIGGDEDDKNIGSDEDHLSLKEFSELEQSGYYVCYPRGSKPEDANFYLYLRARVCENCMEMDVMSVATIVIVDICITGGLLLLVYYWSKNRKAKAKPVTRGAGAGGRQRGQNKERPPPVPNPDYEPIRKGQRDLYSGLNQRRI
T2 sequence (P07766 23-126 limits assumed): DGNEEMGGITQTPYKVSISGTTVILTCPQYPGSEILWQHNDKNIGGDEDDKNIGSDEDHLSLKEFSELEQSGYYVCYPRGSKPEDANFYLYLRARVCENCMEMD

Bmax (MFI) [1] [MFI] | Kd [1] [nM] | Kd [2] [nM] | koff [2] [s⁻¹] | kon [2] [M⁻¹ s⁻¹] | Kd [3] [nM] | koff [3] [s⁻¹] | kon [3] [M⁻¹ s⁻¹] | Binder
216 | 27.4 | 5.37 | 0.000668 | 124000 |  |  |  | 2037-B10_Hc-N56D (antibody, human IgG1, lambda, V domains shown, human IgG1, lambda; also called SRP 2037 N56D; 2037-B10_VH-N56D) VH: EVQLVESGGGLVKPGGSLRLSCAASGFTFNKYAMNWVRQAPGKGLEWVARIRTKYDNYATYYADSVKDRFTISRDDSKNTAYLQMNSLKTEDTAVYYCVRHGNFGNSYISYWAYWGQGTPVTVSS VL: QTVVTQEPSLTVSPGGTVTLTCGSSTGAVTSGYYPNWLQQKPGQAPRGLIGGTKFLAPGTPARFSGSLLGGKAALTLSGVQPEDEAEYYCALWYSNRWVFGGGTQLTVTG
1060 | 0.94 | 1.39 | 0.000377 | 271000 |  |  |  | 2037-B10_Hc-K31D (antibody, human IgG1, lambda, V domains shown, human IgG1, lambda; also called SRP 2037 K31D; 2037-B10_VH-K31D) VH: EVQLVESGGGLVKPGGSLRLSCAASGFTFNDYAMNWVRQAPGKGLEWVARIRTKYNNYATYYADSVKDRFTISRDDSKNTAYLQMNSLKTEDTAVYYCVRHGNFGNSYISYWAYWGQGTPVTVSS VL: QTVVTQEPSLTVSPGGTVTLTCGSSTGAVTSGYYPNWLQQKPGQAPRGLIGGTKFLAPGTPARFSGSLLGGKAALTLSGVQPEDEAEYYCALWYSNRWVFGGGTQLTVTG
1220 | 0.43 | 0.596 | 0.000265 | 445000 |  |  |  | 2037-B10_Lc-N96D (antibody, V domains shown, human IgG1, lambda; also called SRP 2037 N96D; 2037-B10 VL-N96D) VH: not shown VL: QTVVTQEPSLTVSPGGTVTLTCGSSTGAVTSGYYPNWLQQKPGQAPRGLIGGTKFLAPGTPARFSGSLLGGKAALTLSGVQPEDEAEYYCALWYSDRWVFGGGTQLTVTG
119 | 6.61 |  |  |  |  |  |  | 2037-B10_Hc-R50D (antibody, human IgG1, lambda, V domains shown, human IgG1, lambda; also called SRP 2037 R50D; 2037-B10_VH-R50D) VH: EVQLVESGGGLVKPGGSLRLSCAASGFTFNKYAMNWVRQAPGKGLEWVADIRTKYNNYATYYADSVKDRFTISRDDSKNTAYLQMNSLKTEDTAVYYCVRHGNFGNSYISYWAYWGQGTPVTVSS VL: QTVVTQEPSLTVSPGGTVTLTCGSSTGAVTSGYYPNWLQQKPGQAPRGLIGGTKFLAPGTPARFSGSLLGGKAALTLSGVQPEDEAEYYCALWYSNRWVFGGGTQLTVTG
1360 | 1.27 | 1.07 | 0.000278 | 259000 |  |  |  | 2037-B10_Hc-F27D (antibody, human IgG1, lambda, V domains shown, human IgG1, lambda; also called SRP 2037 F27D; 2037-B10_VH-F27D) VH: EVQLVESGGGLVKPGGSLRLSCAASGDTFNKYAMNWVRQAPGKGLEWVARIRTKYNNYATYYADSVKDRFTISRDDSKNTAYLQMNSLKTEDTAVYYCVRHGNFGNSYISYWAYWGQGTPVTVSS VL: QTVVTQEPSLTVSPGGTVTLTCGSSTGAVTSGYYPNWLQQKPGQAPRGLIGGTKFLAPGTPARFSGSLLGGKAALTLSGVQPEDEAEYYCALWYSNRWVFGGGTQLTVTG
 |  |  |  |  | 185 | 0.000761 | 4110 | SRP 2037-B10 F29D/R97D (antibody, human IgG1, lambda, V domains shown, human IgG1, lambda) VH: EVQLVESGGGLVKPGGSLRLSCAASGFTDNKYAMNWVRQAPGKGLEWVARIRTKYNNYATYYADSVKDRFTISRDDSKNTAYLQMNSLKTEDTAVYYCVRHGNFGNSYISYWAYWGQGTPVTVSS VL: QTVVTQEPSLTVSPGGTVTLTCGSSTGAVTSGYYPNWLQQKPGQAPRGLIGGTKFLAPGTPARFSGSLLGGKAALTLSGVQPEDEAEYYCALWYSNDWVFGGGTQLTVTG
1600 | 0.7 |  |  |  |  |  |  | 2037-B10_Lc-Y94D (antibody, V domains shown, human IgG1, lambda; also called SRP 2037 Y94D; 2037-B10 VL-Y94D) VH: not shown VL: QTVVTQEPSLTVSPGGTVTLTCGSSTGAVTSGYYPNWLQQKPGQAPRGLIGGTKFLAPGTPARFSGSLLGGKAALTLSGVQPEDEAEYYCALWDSNRWVFGGGTQLTVTG
857 | 0.37 | 0.856 | 0.000289 | 337000 |  |  |  | 2037-B10_Hc-K54D (antibody, human IgG1, lambda, V domains shown, human IgG1, lambda; also called SRP 2037 K54D; 2037-B10_VH-K54D) VH: EVQLVESGGGLVKPGGSLRLSCAASGFTFNKYAMNWVRQAPGKGLEWVARIRTDYNNYATYYADSVKDRFTISRDDSKNTAYLQMNSLKTEDTAVYYCVRHGNFGNSYISYWAYWGQGTPVTVSS VL: QTVVTQEPSLTVSPGGTVTLTCGSSTGAVTSGYYPNWLQQKPGQAPRGLIGGTKFLAPGTPARFSGSLLGGKAALTLSGVQPEDEAEYYCALWYSNRWVFGGGTQLTVTG
989 | 0.22 | 0.36 | 0.000189 | 524000 |  |  |  | 2037-B10_Hc-N30D (antibody, human IgG1, lambda, V domains shown, human IgG1, lambda; also called SRP 2037 N30D; 2037-B10_VH-N30D) VH: EVQLVESGGGLVKPGGSLRLSCAASGFTFDKYAMNWVRQAPGKGLEWVARIRTKYNNYATYYADSVKDRFTISRDDSKNTAYLQMNSLKTEDTAVYYCVRHGNFGNSYISYWAYWGQGTPVTVSS VL: QTVVTQEPSLTVSPGGTVTLTCGSSTGAVTSGYYPNWLQQKPGQAPRGLIGGTKFLAPGTPARFSGSLLGGKAALTLSGVQPEDEAEYYCALWYSNRWVFGGGTQLTVTG
